From patent US20240391984A1

Columns and labels:
[1] = biological target: polyclonal IgG (Gammanorm, Octapharma, Sweden); experiment: SPR (Biacore 8K+), variant amine-coupled to CM5, Gammanorm as analyte, steady state fit
[2] = biological target: polyclonal IgG (Gammanorm, Octapharma, Sweden); experiment: SPR (Biacore 8K+), variant amine-coupled to CM5, Gammanorm as analyte, 1:1 kinetic fit

Binder | Kd [1] | Kd [2]
pAM166 (D1 domain; pos 10 Q, pos 45 A, pos 60 Q) (designed binder) PKEEVTIKAQLIFADGKTQTAEFKGTFEEATAEAYRYADLLAKVAGEYTADLEDGGYTIQIKFAGKEQPGEN | 41 nM | –
pAM179 (D1 domain; pos 10 Y, pos 45 H, pos 60 Y) (designed binder) PKEEVTIKAYLIFADGKTQTAEFKGTFEEATAEAYRYADLLAKVHGEYTADLEDGGYTIYIKFAGKEQPGEN | 75 nM | –
pAM115 (B3 domain of Protein L; pos 10 N, pos 45 A, pos 60 N) (designed binder) PKEEVTIKANLIYADGKTQTAEFKGTFEEATAEAYRYADLLAKEAGKYTVDVADKGYTLNIKFAGKEKTPEE | 51 nM | 12 nM
pAM116 (B3 domain of Protein L; pos 10 N, pos 45 H, pos 60 N) (designed binder) PKEEVTIKANLIYADGKTQTAEFKGTFEEATAEAYRYADLLAKEHGKYTVDVADKGYTLNIKFAGKEKTPEE | 51 nM | 14 nM
pAM134 (B3 domain of Protein L; pos 10 Y, pos 45 H, pos 60 N) (designed binder) PKEEVTIKAYLIYADGKTQTAEFKGTFEEATAEAYRYADLLAKEHGKYTVDVADKGYTLNIKFAGKEKTPEE | 55 nM | 18 nM
pAM130 (B3 domain of Protein L; pos 10 Q, pos 45 H, pos 60 Q) (designed binder) PKEEVTIKAQLIYADGKTQTAEFKGTFEEATAEAYRYADLLAKEHGKYTVDVADKGYTLQIKFAGKEKTPEE | 57 nM | 19 nM
pAM126 (B3 domain of Protein L; pos 10 Q, pos 45 N, pos 60 Q) (designed binder) PKEEVTIKAQLIYADGKTQTAEFKGTFEEATAEAYRYADLLAKENGKYTVDVADKGYTLQIKFAGKEKTPEE | 52 nM | 16 nM
pAM169 (B2 domain of Protein L; pos 10 Y, pos 45 H, pos 60 Y) (designed binder) PKEEVTIKAYLIYADGKTQTAEFKGTFEEAAAEAYRYADALKKDHGEYTVDVADKGYTLYIKFAGKEKTPEE | 76 nM | –
pAM117 (B3 domain of Protein L; pos 10 N, pos 45 N, pos 60 Q) (designed binder) PKEEVTIKANLIYADGKTQTAEFKGTFEEATAEAYRYADLLAKENGKYTVDVADKGYTLQIKFAGKEKTPEE | 60 nM | 18 nM
pAM123 (B3 domain of Protein L; pos 10 Q, pos 45 N, pos 60 N) (designed binder) PKEEVTIKAQLIYADGKTQTAEFKGTFEEATAEAYRYADLLAKENGKYTVDVADKGYTLNIKFAGKEKTPEE | 51 nM | 13 nM
pAM119 (B3 domain of Protein L; pos 10 N, pos 45 A, pos 60 Q) (designed binder) PKEEVTIKANLIYADGKTQTAEFKGTFEEATAEAYRYADLLAKEAGKYTVDVADKGYTLQIKFAGKEKTPEE | 58 nM | 16 nM
pAM156 (B2 domain of Protein L; pos 10 Q, pos 45 A, pos 60 Q) (designed binder) PKEEVTIKAQLIYADGKTQTAEFKGTFEEAAAEAYRYADALKKDAGEYTVDVADKGYTLQIKFAGKEKTPEE | 92 nM | –
pAM124 (B3 domain of Protein L; pos 10 Q, pos 45 A, pos 60 N) (designed binder) PKEEVTIKAQLIYADGKTQTAEFKGTFEEATAEAYRYADLLAKEAGKYTVDVADKGYTLNIKFAGKEKTPEE | 51 nM | 12 nM
pAM128 (previously disclosed benchmarking Protein L ligand; B3 domain with pos 10 Q, pos 45 A, pos 60 Q) (designed binder) PKEEVTIKAQLIYADGKTQTAEFKGTFEEATAEAYRYADLLAKEAGKYTVDVADKGYTLQIKFAGKEKTPEE | 60 nM | 17 nM
pAM178 (C4 domain of Protein L; pos 10 Y, pos 45 H, pos 60 Y) (designed binder) PKEEVTIKVYLIFADGKTQTAEFKGTFEEATAEAYRYADLLAKVHGEYTADLEDGGYTIYIKFAGKEQPGENPG | 45 nM | –
pAM170 (B4 domain of Protein L; pos 10 Y, pos 45 H, pos 60 Y) (designed binder) PKEEVTIKAYLIYADGKTQTAEFKGTFAEATAEAYRYADLLAKEHGKYTADLEDGGYTIYIRFAGKKVDEKPEE | 49 nM | –
pAM146 (C1 domain of Protein L; pos 10 N, pos 45 N, pos 60 N) (protein) PEEEVTIKANLIFADGSTQNAEFKGTFAKAVSDAYAYADALKKDNGEYTVDVADKGLTLNIKFAGKKEKPEE | 61 nM | –
pAM159 (C1 domain of Protein L; pos 10 Q, pos 45 A, pos 60 Q) (designed binder) PEEEVTIKAQLIFADGSTQNAEFKGTFAKAVSDAYAYADALKKDAGEYTVDVADKGLTLQIKFAGKKEKPEE | 103 nM | –
pAM172 (C1 domain of Protein L; pos 10 Y, pos 45 H, pos 60 Y) (designed binder) PEEEVTIKAYLIFADGSTQNAEFKGTFAKAVSDAYAYADALKKDHGEYTVDVADKGLTLYIKFAGKKEKPEE | 110 nM | –
pAM161 (C2 domain of Protein L; pos 10 Q, pos 45 A, pos 60 Q) (designed binder) PKEEVTIKVQLIFADGKTQTAEFKGTFEEATAKAYAYADLLAKEAGEYTADLEDGGNTIQIKFAGKETPETPEE | 110 nM | –
pAM177 (C3 domain of Protein L; pos 10 Y, pos 39 D, pos 45 H, pos 57 Y, pos 60 Y) (designed binder) PKEEVTIKVYLIFADGKIQTAEFKGTFEEATAKAYAYADLLAKEHGEYTADLEDGGYTIYIKFAGKETPETPEE | 58 nM | –
pAM175 (C2 domain of Protein L; pos 10 Y, pos 45 H, pos 57 Y, pos 60 Y) (designed binder) PKEEVTIKVYLIFADGKTQTAEFKGTFEEATAKAYAYADLLAKEHGEYTADLEDGGYTIYIKFAGKETPETPEE | 57 nM | –
pAM163 (C3 domain of Protein L; pos 10 Q, pos 45 A, pos 60 Q) (designed binder) PKEEVTIKVQLIFADGKIQTAEFKGTFEEATAKAYAYANLLAKEAGEYTADLEDGGNTIQIKFAGKETPETPEE | 188 nM | –
pAM174 (C2 domain of Protein L; pos 10 Y, pos 45 H, pos 60 Y) (designed binder) PKEEVTIKVYLIFADGKTQTAEFKGTFEEATAKAYAYADLLAKEHGEYTADLEDGGNTIYIKFAGKETPETPEE | 105 nM | –
pAM150 (C3 domain of Protein L; pos 10 N, pos 45 N, pos 60 N) (protein) PKEEVTIKVNLIFADGKIQTAEFKGTFEEATAKAYAYANLLAKENGEYTADLEDGGNTINIKFAGKETPETPEE | 40 nM | –
pAM149 (C2 domain of Protein L; pos 10 N, pos 45 N, pos 57 Y, pos 60 N) (designed binder) PKEEVTIKVNLIFADGKTQTAEFKGTFEEATAKAYAYADLLAKENGEYTADLEDGGYTINIKFAGKETPETPEE | 45 nM | –
pAM176 (C3 domain of Protein L; pos 10 Y, pos 45 H, pos 60 Y) (designed binder) PKEEVTIKVYLIFADGKIQTAEFKGTFEEATAKAYAYANLLAKEHGEYTADLEDGGNTIYIKFAGKETPETPEE | 137 nM | –
pAM141 (B1 domain of Protein L; pos 10 N, pos 45 N, pos 60 N) (protein) SEEEVTIKANLIFANGSTQTAEFKGTFEKATSEAYAYADTLKKDNGEYTVDVADKGYTLNIKFAGKEKTPEE | 48 nM | –
pAM167 (B1 domain of Protein L; pos 10 Y, pos 45 H, pos 60 Y) (designed binder) SEEEVTIKAYLIFANGSTQTAEFKGTFEKATSEAYAYADTLKKDHGEYTVDVADKGYTLYIKFAGKEKTPEE | 97 nM | –
pAM154 (B1 domain of Protein L; pos 10 Q, pos 45 A, pos 60 Q) (designed binder) SEEEVTIKAQLIFANGSTQTAEFKGTFEKATSEAYAYADTLKKDAGEYTVDVADKGYTLQIKFAGKEKTPEE | 65 nM | –

Continued by falling Kd [1], values first:

Kd [1] | Kd [2] | Binder
40 nM | – | pAM171 (B5 domain of Protein L; pos 10 Y, pos 45 H, pos 60 Y) (designed binder) KEQVTIKEYIYFEDGTVQTATFKGTFAEATAEAYRYADLLSKEHGKYTADLEDGGYTIYIRFAGKEEPEE
39 nM | – | pAM162 (C2 domain of Protein L; pos 10 Q, pos 45 A, pos 57 Y, pos 60 Q) (designed binder) PKEEVTIKVQLIFADGKTQTAEFKGTFEEATAKAYAYADLLAKEAGEYTADLEDGGYTIQIKFAGKETPETPEE
39 nM | – | pAM164 (C3 domain of Protein L; pos 10 Q, pos 39 D, pos 45 A, pos 57 Y, pos 60 Q) (designed binder) PKEEVTIKVQLIFADGKIQTAEFKGTFEEATAKAYAYADLLAKEAGEYTADLEDGGYTIQIKFAGKETPETPEE
38 nM | – | pAM165 (C4 domain of Protein L; pos 10 Q, pos 45 A, pos 60 Q) (designed binder) PKEEVTIKVQLIFADGKTQTAEFKGTFEEATAEAYRYADLLAKVAGEYTADLEDGGYTIQIKFAGKEQPGENPG
38 nM | – | pAM144 (B4 domain of Protein L; pos 10 N, pos 45 N, pos 60 N) (protein) PKEEVTIKANLIYADGKTQTAEFKGTFAEATAEAYRYADLLAKENGKYTADLEDGGYTINIRFAGKKVDEKPEE
38 nM | – | pAM157 (B4 domain of Protein L; pos 10 Q, pos 45 A, pos 60 Q) (designed binder) PKEEVTIKAQLIYADGKTQTAEFKGTFAEATAEAYRYADLLAKEAGKYTADLEDGGYTIQIRFAGKKVDEKPEE
36 nM | – | pAM143 (B2 domain of Protein L; pos 10 N, pos 45 N, pos 60 N) (protein) PKEEVTIKANLIYADGKTQTAEFKGTFEEAAAEAYRYADALKKDNGEYTVDVADKGYTLNIKFAGKEKTPEE
35 nM | – | pAM148 (C2 domain of Protein L; pos 10 N, pos 45 N, pos 60 N) (protein) PKEEVTIKVNLIFADGKTQTAEFKGTFEEATAKAYAYADLLAKENGEYTADLEDGGNTINIKFAGKETPETPEE
32 nM | – | pAM153 (D1 domain; pos 10 N, pos 45 N, pos 60 N) (protein) PKEEVTIKANLIFADGKTQTAEFKGTFEEATAEAYRYADLLAKVNGEYTADLEDGGYTINIKFAGKEQPGEN
30 nM | – | pAM151 (C3 domain of Protein L; pos 10 N, pos 39 D, pos 45 N, pos 57 Y, pos 60 N) (designed binder) PKEEVTIKVNLIFADGKIQTAEFKGTFEEATAKAYAYADLLAKENGEYTADLEDGGYTINIKFAGKETPETPEE
24 nM | – | pAM158 (B5 domain of Protein L; pos 10 Q, pos 45 A, pos 60 Q) (designed binder) KEQVTIKEQIYFEDGTVQTATFKGTFAEATAEAYRYADLLSKEAGKYTADLEDGGYTIQIRFAGKEEPEE
24 nM | – | pAM152 (C4 domain of Protein L; pos 10 N, pos 45 N, pos 60 N) (protein) PKEEVTIKVNLIFADGKTQTAEFKGTFEEATAEAYRYADLLAKVNGEYTADLEDGGYTINIKFAGKEQPGENPG
21 nM | – | pAM180 (B5 domain of Protein L; pos 10 N, pos 45 H, pos 60 N) (protein) KEQVTIKENIYFEDGTVQTATFKGTFAEATAEAYRYADLLSKEHGKYTADLEDGGYTINIRFAGKEEPEE
11 nM | – | pAM145 (B5 domain of Protein L with H45N backbone; pos 10 N, pos 45 N, pos 60 N) (designed binder) KEQVTIKENIYFEDGTVQTATFKGTFAEATAEAYRYADLLSKENGKYTADLEDGGYTINIRFAGKEEPEE
